Test: 1,3-butadiene production from 3-phosphonoxypent-4-enoate by using a terpene synthase (headspace GC-FID)
Type: biochemical
Conditions: 5 mg/ml enzyme, 50 mM 3-phosphonoxypent-4-enoate, 37° C., 24 hours
Description: The reactions were performed in sealed vials. The total volume was 0.5 ml. Final concentrations were 5 mg/ml enzyme, 50 mM 3-phosphonoxypent-4-enoate, 4 mM DTT, 50 mM MgCl2, 50 mM KCl, 50 mM Tris-HCl buffer pH 7.5. The incubation was carried out at 37° C. for 24 h. The control reactions without enzyme or without substrate were performed in parallel under the same conditions.
One ml of the gaseous phase of the reaction was collected and analyzed by Gas-Chromatography with Flame Ionization Detector (GC-FID) ((Brucker GC 450) using a RTX-alumina column (Varian), with an isocratic elution at 130° C. and nitrogen as carrier gas at flow rate of 1.5 ml/min. The retention of commercial 1,3-butadiene (Sigma) in these conditions was 7.4 min.

B1: isoprene synthase from Pueraria montana var. lobata: purified His-tagged isoprene synthase (terpene synthase), Uniprot Q6EJ97, SEQ ID NO: 30, expressed in E. coli (protein, listed as Pueraria montana)
chain: MCATSSQFTQITEHNSRRSANYQPNLWNFEFLQSLENDLKVEKLEEKATKLEEEVRCMINRVDTQPLSLLELIDDVQRLGLTYKFEKDIIKALENIVLLDENKKNKSDLHATALSFRLLRQHGFEVSQDVFERFKDKEGGFSGELKGDVQGLLSLYEASYLGFEGENLLEEARTFSITHLKNNLKEGINTKVAEQVSHALELPYHQRLHRLEARWFLDKYEPKEPHHQLLLELAKLDFNMVQTLHQKELQDLSRWWTEMGLASKLDFVRDRLMEVYFWALGMAPDPQFGECRKAVTKMFGLVTIIDDVYDVYGTLDELQLFTDAVERWDVNAINTLPDYMKLCFLALYNTVNDTSYSILKEKGHNNLSYLTKSWRELCKAFLQEAKWSNNKIIPAFSKYLENASVSSSGVALLAPSYFSVCQQQEDISDHALRSLTDFHGLVRSSCVIFRLCNDLATSAAELERGETTNSIISYMHENDGTSEEQAREELRKLIDAEWKKMNRERVSDSTLLPKAFMEIAVNMARVSHCTYQYGDGLGRPDYATENRIKLLLIDPFPINQLMYV
modifications: His tag; var. lobata
  ratio of butadiene produced in the presence of isoprene synthase versus in the absence of enzyme (butadiene peak areas): about 5 fold

— patent publication US9873895B2, “Production of 1,3-dienes by enzymatic conversion of 3-hydroxyalk 4-enoates and/or 3-phosphonoxyalk-4-enoates” (Scientist of Fortune S.A., priority 2011, dated 2018)
